{"source": "the DeepSol protein solubility set", "data": [{"assay": "soluble on expression in E. coli; label from the status in PepcDB or PDB records", "values": [{"sequence": "MSLEQLLGRGEAAPSVRYDETIQKIIPIIKNSIRLPDDLRDRKTIWEFIRPQLMGIKALEAGFSMALWDWWGQKIGRPIFELLSVKTKMLPQTSYTISIGGFDELGAKLEEAKPYSILKVKLGTPKMDKEIITEIRRHTEKLIRVDANEGWTEDVALEMSFWLADRNIEFIEQPFPAKDLNSSIELKKKSPLEIFADENSLNSNDIKPIRHAFHGINIKLMKCGSLEEGKKMIDVARENGLKVMLGCMVETSVGITSASHLAGEVDFVDLDGNLLIKNDPYSGVLVNNGRLVLQKGNGSGVKLSSDYRNILEEGHHHHHH", "soluble on expression in E. coli": "soluble"}, {"sequence": "MGSDKIHHHHHHKPGEVWPDDKGVHINAHGGGILRVGDTYYWFGEHKTEGSAGNLAQVGVHCYSSKDLYNWKDEGIALSVVPDDTTSHIVKGCVLERPKVIYNKKNDQYVMWFHLEPRGAGYSGALSGVAVSKNVAGPYSFVNAFRPNAGFWPVNVQELHKQPCTFSADLRFSGGELPAHPDSLNLLGRDQISGQMARDMNLFVDDDGIAYHIYSSEENSTLHISQLTDDYTSYSGKYARFFPGRFMEAPALFKQKGKYYLIMSGCTGWAPNAGRSAVASSIWGPWKELENPFRGENSEVSFYSQSTYVLPVPGHADRFIYMGDRWTPENAIDGRYIWLPIRFEGEQPVIEWRSEWSY", "soluble on expression in E. coli": "not soluble"}, {"sequence": "VRRKVRRLTLAVSALVALFPAVAGCSDSGDNKPGATIPSTPANAEGRHGPFFPQCGGVSDQTVTELTRVTGLVNTAKNSVGCQWLAGGGILGPHFSFSWYRGSPIGRERKTEELSRASVEDINIDGHSGFIAIGNEPSLGDSLCEVGIQFSDDFIEWSVSFSQKPFPLPCDIAKELTRQSIANSK", "soluble on expression in E. coli": "not soluble"}, {"sequence": "ICMNVENEVTHTQLQFNHTDKYCGNIKNLISCKLYQHALTLIDSFRHDKSI", "soluble on expression in E. coli": "not soluble"}, {"sequence": "MMLENKSINELYSIKLIEEADTKRLIKFMNKYMNSKHEFEMSKRIFLSDQILNQECYNDINIRSSIYNFYEEYIVMEKEGKIAALIALDINRNNLSKVLNLNLIICEEGEMSRLRDMFIFATEILPEYSIVEPTKIRTYIRENGIFTEYWKNKLMEAGFSHEVTRENEVGNGVALTTMIIKMK", "soluble on expression in E. coli": "not soluble"}, {"sequence": "SFQEQTTKSRDVNSFQIPLRDGVRELLPEDASRNRASIKSPVDIWIGGENMTALNGIVDGGRKFEAGQEFQINTFGSVNYWVSDEEIRVFKEYSARAKYAQNEGRTALEANNVPFFDIDVPPELDGVPFSLKARVRHKSKGVDGLGDYTSISVKPAFYITEGDETTDTLIKYTSYGSTGSHSGYDFDDNTLDVMVTLSAGVHRVFPVETELDYDAVQEVQHDWYDESFTTFIEVYSDDPLLTVKGYAQILMERT", "soluble on expression in E. coli": "soluble"}, {"sequence": "MAGDPMADQEANAEQPMPKAEQKKPEKKAVQVQKKEDDTSAWIKTEKPAKLPILMYHSISSGNSLRVPKKEFEAHMKWLHDNGYQTLTPKEASLMLTQDKKPSEKCVLITFDDGYTDNYQDAYPVLKKYGMKATIFMIGKSIGHKHHLTEEQMKEMAQHGISIESHTIDHLELNGLTPQQQQSEMADSKKLFDNMFHQQTTIISYPVGRYNEETLKAAEKTGYQMGVTTEPGAASRDQGMYALHRVRVSPGMSGSAFGAYIESMKLEHHHHHH", "soluble on expression in E. coli": "soluble"}, {"sequence": "MYIPNAFRESDTHNLQEHMDKTRLAILVTQGDDGLHATHLPLLLRSDEGPYGTLYGHMAKANPQWQQLNADAEAMVIFPGEDAYVSPSFYPSKAEHGKVVPTWNYLAVHAYGQAECFTDPDRLHQLLNDLTDRHESSRAQPWSINDAPADYIAKMLGAIVGFSIPVQRLQGKRKLSQNRSAEDMAGVRDGLGASHLANDQQIARLMSGWRPS", "soluble on expression in E. coli": "not soluble"}, {"sequence": "MSLGFKEYYRVFPTYTDINSQEYRSRIETLEPLLMKYMKKRGKVLDLACGVGGFSFLLEDYGFEVVGVDISEDMIRKAREYAKSRESNVEFIVGDARKLSFEDKTFDYVIFIDSIVHFEPLELNQVFKEVRRVLKPSGKFIMYFTDLRELLPRLKESLVVGQKYWISKVIPDQEERTVVIEFKSEQDSFRVRFNVWGKTGVELLAKLYFTKEAEEKVGNYSYLTVYNPKEGHHHHHH", "soluble on expression in E. coli": "soluble"}, {"sequence": "MNDATPDQLRTGPSRETPRFQQIVQDIKRRIADGSLSEHAALPSERRIAEETGISRMTARRALDALEAEGLVYSADRRGRFVSPKRVSYDVSNLVSFVADAESRGTALGIEVIRAQEGKADPALAARLELEPGAAIHEYTRLFRQDGHAIFVETEYVDARRCPDFLSHDLHQSTTRLLESQYDLVARTGDIVIRMRGAHPEETHLLGLAQSQSGIELTQVIRDASGRPFCFGRQFWRGEMAEFSARAIVGGSIHG", "soluble on expression in E. coli": "not soluble"}]}]}
